Data set [1] concerns the target SARS-CoV-2 nucleocapsid protein (SARS-CoV-2, UniProt P0DTC9 1-419). Put plainly: aptamer-immuno-PCR (mAb sandwich, qPCR); PBS + 0.1% Tween 20 (PBST); 1 h at 21 C ([…]) or 37 C ([…]. The note with it: protein: commercial; chain copies: 2.
The target in the next data set is Taq DNA polymerase (Thermus aquaticus, UniProt P19821 1-832). Put plainly: qPCR of aptamer bound to immobilized protein; 50 nM aptamer; 0.5 ug Taq/well; 0.1% methylcellulose, BSA or Tween 20 block; PBS + 0.1% Tween 20 (PBST); 1 h at 21 C (44/70-Taq) or 37 C (NC aptamer-nucleocapsid); wells blocked with 0.1% BSA, Tween 20 or methylcellulose; PBST washes. The conditions noted are these: protein: commercial.

The values below come from PMC10779054.

B1: NC aptamer (ssDNA)
DNA: GCAATGGTACGGTACTTCCGGATGCGGAAACTGGCTAATTGGTGAGGCTGGGGCGGTCGTGCAGCAAAAGTGCACGCTACTTTGCTAA
As to B1, the binding result in data set [1] is “binds”.

B2: 44/70 aptamer (ssDNA)
DNA: CCTTGAACCTGTGCCATTTGCTAATTGAGACTATTATGGGCTTTTTAGTCGAACAGTAGGAAGATGGAGG
With B2, the binding result in the data set with Taq DNA polymerase is “binds”.
